Measurements reported in patent US5766581, “Method for treating mammals with monopegylated proteins that stimulates megakaryocyte growth and differentiation” (Amgen Inc., dated 1998).
Blank lines part the entries; values can stand above or below the molecule they belong to.

Experiments:
[1] = biological target: human Mpl receptor, full length, on cells (human) (UniProt P40238)
[2] = biological target: murine Mpl receptor, full length, expressed on 32D cells (subclone 1A6.1) (murine) (UniProt Q08351)
[3] = biological target: murine Mpl receptor, full length, expressed on 32D cells (subclone 1A6.1) (murine) (UniProt Q08351); remark: listed apart in the source
[4] = biological target: murine Mpl receptor, full length, expressed on 32D cells (subclone 1A6.1) (murine, UniProt Q08351); test: cell-based or functional assay
[5] = biological target: human Mpl receptor, full length, on cells (human, UniProt P40238); test: cell-based or functional assay

Human Meg assay (units/mg) [1]: 1.4e+10 units/mg | 1A6.1 assay (units/mg) [2]: 1.05e+10 units/mg | 1A6.1 cell growth, fraction diluted 1:45000 (cells per well) [3]: 6000
Molecule: 25 kd canine Mpl ligand purified from aplastic canine plasma

Human Meg assay (units/mg) [1]: 5.7e+09 units/mg | 1A6.1 assay (units/mg) [2]: 6.52e+09 units/mg
Molecule: 31 kd canine Mpl ligand purified from aplastic canine plasma

U/ml (- mur-MPL-X), 1A6.1 cells [4]: 12800 U/ml | Megakaryocytes per Well (-mur-MPL-X) [5]: 100 megakaryocytes per well
B1: human MGDF-2 (amino acids 1-174 of SEQ ID NO: 25) (ligand)
chain: SPAPPACDLRVLSKLLRDSHVLHSRLSQCPEVHPLPTPVLLPAVDFSLGEWKTQMEETKAQDILGAVTLLLEGVMAARGQLGPTCLSSLLGQLSGQVRLLLGALQSLLGTQLPPQGRTTAHKDPNAIFLSFQHLLRGKVRFLMLVGGSTLCVR

U/ml (- mur-MPL-X), 1A6.1 cells [4]: 0 U/ml | Megakaryocytes per Well (-mur-MPL-X) [5]: 2 megakaryocytes per well
B2: human MGDF-3 (amino acids 1-265 of SEQ ID NO: 27) (ligand)
chain: SPAPPACDLRVLSKLLRDSHVLHSRLSQCPEVHPLPTPVLLPAVDFSLGEWKTQMEETKAQDILGAVTLLLEGVMAARGQLGPTCLSSLLGQLSGQVRLLLGALQSLLGTQLPPQGRTTAHKDPNAIFLSFQHLLRGKDFWIVGDKLHCLSQNYWLWASEVAAGIQSQDSWSAEPNLQVPGPNPRIPEQDTRTLEWNSWTLSWTLTQDPRSPGHFLRNIRHRLPATQPPAWIFSFPNPSSYWTVYALPSSTHLAHPCGPAPPPAS
